Results from the RNAGym collection of RNA variant scans (doi:10.7554/elife.80360).

B1: Hammerhead Ribozyme (parent)
chain: ACCGGAUGUGCUUUCCGGUCUGAUGAGUCCGUGAGGACGAAACAG

Variants of: B1
Assay: self-cleavage, relative activity (ratio to wild type); higher = more cleavage; co-transcriptional
ACCGGAUGUGCUUUCCGGUCUGAUGAGUCCGGGAGCACGAAACAG [U32G G36C] showed a self-cleavage of 0.464.
For ACCGGAUGUGCUUUCCGGUCUGAUGAGUCCGGGAGAACGAAACAG [U32G G36A], the self-cleavage was 0.556.
With ACCGGAUGUGCUUUCCGGUCUGAUGAGUCCGGGAGUACGAAACAG [U32G G36U] the self-cleavage was 0.398.
Variant ACCGGAUGUGCUUUCCGGUCUGAUGAGUCCGGGGGGACGAAACAG [U32G A34G] has a self-cleavage of 0.65.
ACCGGAUGUGCUUUCCGGUCUGAUGAGUCCGGGUGGACGAAACAG [U32G A34U] gave a self-cleavage of 1.19.
With ACCGGAUGUGCUUUCCGGUCUGAUGAGUCCGGGCGGACGAAACAG [U32G A34C] the self-cleavage was 0.805.
ACCGGAUGUGCUUUCCGGUCUGAUGAGUCCGCCAGGACGAAACAG [U32C G33C] showed a self-cleavage of 1.15.
Variant ACCGGAUGUGCUUUCCGGUCUGAUGAGUCCGCUAGGACGAAACAG [U32C G33U] has a self-cleavage of 1.37.
With ACCGGAUGUGCUUUCCGGUCUGAUGAGUCCGCAAGGACGAAACAG [U32C G33A] the self-cleavage was 0.924.
With ACCGGAUGUGCUUUCCGGUCUGAUGAGUCCGUAAGCACGAAACAG [G33A G36C] the self-cleavage was 0.58.
For ACCGGAUGUGCUUUCCGGUCUGAUGAGUCCGUAAGAACGAAACAG [G33A G36A], the self-cleavage was 0.894.
ACCGGAUGUGCUUUCCGGUCUGAUGAGUCCGUAAGUACGAAACAG [G33A G36U] gave a self-cleavage of 0.613.
With ACCGGAUGUGCUUUCCGGUCUGAUGAGUCCGGGAGGACGAACCAG [U32G A42C] the self-cleavage was 0.275.
ACCGGAUGUGCUUUCCGGUCUGAUGAGUCCGGGAGGACGAAGCAG [U32G A42G] showed a self-cleavage of 0.357.
ACCGGAUGUGCUUUCCGGUCUGAUGAGUCCGGGAGGACGAAUCAG [U32G A42U] gave a self-cleavage of 0.375.
For ACCGGAUGUGCUUUCCGGUCUGAUGAGUCCGCGAGUACGAAACAG [U32C G36U], the self-cleavage was 0.73.
For ACCGGAUGUGCUUUCCGGUCUGAUGAGUCCGCGAGCACGAAACAG [U32C G36C], the self-cleavage was 0.553.
ACCGGAUGUGCUUUCCGGUCUGAUGAGUCCGCGAGAACGAAACAG [U32C G36A] showed a self-cleavage of 0.718.
For ACCGGAUGUGCUUUCCGGUCUGAUGAGUCCGGGAGGACGAAAGAG [U32G C43G], the self-cleavage was 0.303.
For ACCGGAUGUGCUUUCCGGUCUGAUGAGUCCGGGAGGACGAAAUAG [U32G C43U], the self-cleavage was 0.43.
Work on ACCGGAUGUGCUUUCCGGUCUGAUGAGUCCGGGAGGACGAAAAAG [U32G C43A] yielded a self-cleavage of 0.256.
For ACCGGAUGUGCUUUCCGGUCUGAUGAGUCCGUAAGGACGAAACAA [G33A G45A], the self-cleavage was 0.794.
With ACCGGAUGUGCUUUCCGGUCUGAUGAGUCCGUAAGGAAGAAACAG [G33A C38A] the self-cleavage was 0.608.
With ACCGGAUGUGCUUUCCGGUCUGAUGAGUCCGUAAGGAGGAAACAG [G33A C38G] the self-cleavage was 0.854.
Work on ACCGGAUGUGCUUUCCGGUCUGAUGAGUCCGUAAGGAUGAAACAG [G33A C38U] yielded a self-cleavage of 0.995.
ACCGGAUGUGCUUUCCGGUCUGAUGAGUCCGCGAGGACGAAAAAG [U32C C43A] showed a self-cleavage of 0.315.
For ACCGGAUGUGCUUUCCGGUCUGAUGAGUCCGCGAGGACGAAAGAG [U32C C43G], the self-cleavage was 0.388.
Variant ACCGGAUGUGCUUUCCGGUCUGAUGAGUCCGCGAGGACGAAAUAG [U32C C43U] has a self-cleavage of 0.661.
ACCGGAUGUGCUUUCCGGUCUGAUGAGUCCGCGAGGACGCAACAG [U32C A40C] gave a self-cleavage of 0.626.
ACCGGAUGUGCUUUCCGGUCUGAUGAGUCCGCGAGGACGUAACAG [U32C A40U] gave a self-cleavage of 0.306.
ACCGGAUGUGCUUUCCGGUCUGAUGAGUCCGCGAGGACGGAACAG [U32C A40G] showed a self-cleavage of 0.406.
With ACCGGAUGUGCUUUCCGGUCUGAUGAGUCCGUAAGGACGAAACAG [G33A] the self-cleavage was 1.03.
Work on ACCGGAUGUGCUUUCCGGUCUGAUGAGUCCGCGUGGACGAAACAG [U32C A34U] yielded a self-cleavage of 0.738.
Work on ACCGGAUGUGCUUUCCGGUCUGAUGAGUCCGCGGGGACGAAACAG [U32C A34G] yielded a self-cleavage of 0.896.
Work on ACCGGAUGUGCUUUCCGGUCUGAUGAGUCCGCGCGGACGAAACAG [U32C A34C] yielded a self-cleavage of 0.95.
With ACCGGAUGUGCUUUCCGGUCUGAUGAGUCCGGGAGGACGAAACGG [U32G A44G] the self-cleavage was 0.898.
In the case of ACCGGAUGUGCUUUCCGGUCUGAUGAGUCCGGGAGGACGAAACCG [U32G A44C], the self-cleavage is reported as 0.424.
Variant ACCGGAUGUGCUUUCCGGUCUGAUGAGUCCGGGAGGACGAAACUG [U32G A44U] has a self-cleavage of 0.477.
ACCGGAUGUGCUUUCCGGUCUGAUGAGUCCGUACGGACGAAACAG [G33A A34C] showed a self-cleavage of 1.
ACCGGAUGUGCUUUCCGGUCUGAUGAGUCCGUAUGGACGAAACAG [G33A A34U] gave a self-cleavage of 0.873.
With ACCGGAUGUGCUUUCCGGUCUGAUGAGUCCGUAGGGACGAAACAG [G33A A34G] the self-cleavage was 0.484.
For ACCGGAUGUGCUUUCCGGUCUGAUGAGUCCGGGAGGACGAAACAG [U32G], the self-cleavage was 0.769.
ACCGGAUGUGCUUUCCGGUCUGAUGAGUCCGUAAGGACGAAACCG [G33A A44C] showed a self-cleavage of 0.673.
ACCGGAUGUGCUUUCCGGUCUGAUGAGUCCGUAAGGACGAAACGG [G33A A44G] showed a self-cleavage of 1.59.
For ACCGGAUGUGCUUUCCGGUCUGAUGAGUCCGUAAGGACGAAACUG [G33A A44U], the self-cleavage was 0.98.
Work on ACCGGAUGUGCUUUCCGGUCUGAUGAGUCCGCGAGGACGAAACCG [U32C A44C] yielded a self-cleavage of 0.678.
Variant ACCGGAUGUGCUUUCCGGUCUGAUGAGUCCGCGAGGACGAAACGG [U32C A44G] has a self-cleavage of 1.32.
Work on ACCGGAUGUGCUUUCCGGUCUGAUGAGUCCGCGAGGACGAAACUG [U32C A44U] yielded a self-cleavage of 0.359.
ACCGGAUGUGCUUUCCGGUCUGAUGAGUCCGGGAAGACGAAACAG [U32G G35A] showed a self-cleavage of 0.473.
With ACCGGAUGUGCUUUCCGGUCUGAUGAGUCCGGGACGACGAAACAG [U32G G35C] the self-cleavage was 0.626.
ACCGGAUGUGCUUUCCGGUCUGAUGAGUCCGGGAUGACGAAACAG [U32G G35U] gave a self-cleavage of 0.603.
ACCGGAUGUGCUUUCCGGUCUGAUGAGUCCGUAAGGACGGAACAG [G33A A40G] showed a self-cleavage of 0.503.
Work on ACCGGAUGUGCUUUCCGGUCUGAUGAGUCCGUAAGGACGCAACAG [G33A A40C] yielded a self-cleavage of 0.792.
Work on ACCGGAUGUGCUUUCCGGUCUGAUGAGUCCGUAAGGACGUAACAG [G33A A40U] yielded a self-cleavage of 0.525.
For ACCGGAUGUGCUUUCCGGUCUGAUGAGUCCGCGAGGUCGAAACAG [U32C A37U], the self-cleavage was 0.752.
For ACCGGAUGUGCUUUCCGGUCUGAUGAGUCCGCGAGGGCGAAACAG [U32C A37G], the self-cleavage was 0.987.
With ACCGGAUGUGCUUUCCGGUCUGAUGAGUCCGCGAGGCCGAAACAG [U32C A37C] the self-cleavage was 0.803.
